B1: mRNA-splicing (parent)
chain: AGUUGCUGCUGGGAGCUCCAGCACAGUGAAAUGGACAGAAGGGCAGAGCAA

The variants in this series derive from B1. The series is described as follows: exon inclusion enrichment index; higher = more inclusion; WT1 exon 5 minigene, HEK293.
Consider AGUGUCUUUUGGGAGCUCCAGCACAGUGAAAUGGACAGAAGGGCAGAGCAA [U4G G5U G8U C9U], for which the “exon inclusion enrichment index” value came out at 0.267. The result for AGUGUUUCUCGGGAGCUCCAGCACAGUGAAAUGGACAGAAGGGCAGAGCAA [U4G G5U C6U G8C C9U U10C] reads 0.824; that for AGUGUUAUAUGGGAGCUCCAGCACAGUGAAAUGGACAGAAGGGCAGAGCAA [U4G G5U C6U U7A G8U C9A], 0.0955; that for AGUGCACACAGGGAGCUCCAGCACAGUGAAAUGGACAGAAGGGCAGAGCAA [U4G G5C C6A U7C G8A U10A], 0.0964. Take AGUUAGCUAUGGGAGCUCCAGCACAGUGAAAUGGACAGAAGGGCAGAGCAA [G5A C6G U7C G8U C9A]: the “exon inclusion enrichment index” value worked out at 0.0245. Consider AGUUAAUACCGGGAGCUCCAGCACAGUGAAAUGGACAGAAGGGCAGAGCAA [G5A C6A G8A U10C], for which the “exon inclusion enrichment index” value stood at 0.811. For AGUUAGUGAUGGGAGCUCCAGCACAGUGAAAUGGACAGAAGGGCAGAGCAA [G5A C6G C9A], the “exon inclusion enrichment index” value was 0.036. AGUGGCCACCGGGAGCUCCAGCACAGUGAAAUGGACAGAAGGGCAGAGCAA [U4G U7C G8A U10C]: the “exon inclusion enrichment index” value worked out at 1.53.

As to AGUGACCACCGGGAGCUCCAGCACAGUGAAAUGGACAGAAGGGCAGAGCAA [U4G G5A U7C G8A U10C], the “exon inclusion enrichment index” value was found to be 3.1.

On to AGUGCCCACCGGGAGCUCCAGCACAGUGAAAUGGACAGAAGGGCAGAGCAA [U4G G5C U7C G8A U10C], for which the “exon inclusion enrichment index” value came to 1.75.

On to AGUUAGAGAAGGGAGCUCCAGCACAGUGAAAUGGACAGAAGGGCAGAGCAA [G5A C6G U7A C9A U10A], for which the “exon inclusion enrichment index” value was determined as 0.0116. As to AGUUAGCAAUGGGAGCUCCAGCACAGUGAAAUGGACAGAAGGGCAGAGCAA [G5A C6G U7C G8A C9A], the “exon inclusion enrichment index” value came to 0.0448. The result for AGUUAGUACCGGGAGCUCCAGCACAGUGAAAUGGACAGAAGGGCAGAGCAA [G5A C6G G8A U10C] reads 0.184; that for AGUGUCUGCUGGGAGCUCCAGCACAGUGAAAUGGACAGAAGGGCAGAGCAA [U4G G5U], 0.105; that for AGUGCCUGCUGGGAGCUCCAGCACAGUGAAAUGGACAGAAGGGCAGAGCAA [U4G G5C], 0.226. Take AGUUAGGGAUGGGGCCUCCAGCACAGUGAAAUGGACAGAAGGGCAGAGCAA [G5A C6G U7G C9A A14G G15C]: the “exon inclusion enrichment index” value worked out at 0.00222. For AGUUAGGGAUGGGGUCUCCAGCACAGUGAAAUGGACAGAAGGGCAGAGCAA [G5A C6G U7G C9A A14G G15U], the “exon inclusion enrichment index” value came out at 0.00301. AGUUAGGGAUGGGGACUCCAGCACAGUGAAAUGGACAGAAGGGCAGAGCAA [G5A C6G U7G C9A A14G G15A]: the “exon inclusion enrichment index” value came out at 0.00342. With AGUUAGGGAUGGGCACUCCAGCACAGUGAAAUGGACAGAAGGGCAGAGCAA [G5A C6G U7G C9A A14C G15A], the “exon inclusion enrichment index” value worked out at 0.000979.

Turning to AGUUAGGGAUGGGCUCUCCAGCACAGUGAAAUGGACAGAAGGGCAGAGCAA [G5A C6G U7G C9A A14C G15U], the “exon inclusion enrichment index” value turned out to be 0.000655.

Consider AGUUAGGGAUGGGCCCUCCAGCACAGUGAAAUGGACAGAAGGGCAGAGCAA [G5A C6G U7G C9A A14C G15C], for which the “exon inclusion enrichment index” value stood at 0.000633. Consider AGUUAGGGAUGGGAGCUCCCUCACAGUGAAAUGGACAGAAGGGCAGAGCAA [G5A C6G U7G C9A A20C G21U], for which the “exon inclusion enrichment index” value was 0.00104. As to AGUUAGGGAUGGGAGCUCCCACACAGUGAAAUGGACAGAAGGGCAGAGCAA [G5A C6G U7G C9A A20C G21A], the “exon inclusion enrichment index” value came to 0.00106. Regarding AGUUAGGGAUGGGAGCUCCCCCACAGUGAAAUGGACAGAAGGGCAGAGCAA [G5A C6G U7G C9A A20C G21C], the “exon inclusion enrichment index” value came out at 0.000907.

Consider AGUUAGUCAUGGGAGCUCCAGCACAGUGAAAUGGACAGAAGGGCAGAGCAA [G5A C6G G8C C9A], for which the “exon inclusion enrichment index” value amounted to 0.0264. On to AGUGUGCGCCGGGAGCUCCAGCACAGUGAAAUGGACAGAAGGGCAGAGCAA [U4G G5U C6G U7C U10C], for which the “exon inclusion enrichment index” value came out at 0.917.

For the variant AGUUAGGGAUGGGAGCUCCCGCACAGUGAAAUGGACAGAAGGGCAGAGCAA [G5A C6G U7G C9A A20C], the “exon inclusion enrichment index” value amounted to 0.00932.

In the case of AGUUAGGGAUGGGAGCUCCGGCACAGUGAAAUGGACAGAAGGGCAGAGCAA [G5A C6G U7G C9A A20G], the “exon inclusion enrichment index” value turned out to be 0.00245. With AGUUAGGGAUGGGAGCUCCUGCACAGUGAAAUGGACAGAAGGGCAGAGCAA [G5A C6G U7G C9A A20U], the “exon inclusion enrichment index” value turned out to be 0.00146. For AGUGAUUCUCGGGAGCUCCAGCACAGUGAAAUGGACAGAAGGGCAGAGCAA [U4G G5A C6U G8C C9U U10C] the value was 1.22; for AGUUAAUGAUGGGAGCUCCAGCACAGUGAAAUGGACAGAAGGGCAGAGCAA [G5A C6A C9A], 0.239; for AGUUAGACAUGGGAGCUCCAGCACAGUGAAAUGGACAGAAGGGCAGAGCAA [G5A C6G U7A G8C C9A], 0.0442.

In the case of AGUUAGCCAUGGGAGCUCCAGCACAGUGAAAUGGACAGAAGGGCAGAGCAA [G5A C6G U7C G8C C9A], the “exon inclusion enrichment index” value was found to be 0.0805. In the case of AGUUAAGACCGGGAGCUCCAGCACAGUGAAAUGGACAGAAGGGCAGAGCAA [G5A C6A U7G G8A U10C], the “exon inclusion enrichment index” value stood at 1.08.

As to AGUUAGGGAUGGGAGCUCCGCCACAGUGAAAUGGACAGAAGGGCAGAGCAA [G5A C6G U7G C9A A20G G21C], the “exon inclusion enrichment index” value was determined as 0.00328. Take AGUUAGGGAUGGGAGCUCCGUCACAGUGAAAUGGACAGAAGGGCAGAGCAA [G5A C6G U7G C9A A20G G21U]: the “exon inclusion enrichment index” value amounted to 0.00168. Consider AGUUAGGGAUGGGAGCUCCGACACAGUGAAAUGGACAGAAGGGCAGAGCAA [G5A C6G U7G C9A A20G G21A], for which the “exon inclusion enrichment index” value is 0.00277. On to AGUGGCUUUUGGGAGCUCCAGCACAGUGAAAUGGACAGAAGGGCAGAGCAA [U4G G8U C9U], for which the “exon inclusion enrichment index” value came out at 0.193. In the case of AGUUAACGACGGGAGCUCCAGCACAGUGAAAUGGACAGAAGGGCAGAGCAA [G5A C6A U7C C9A U10C], the “exon inclusion enrichment index” value turned out to be 2.47. In the case of AGUUAAAUAUGGGAGCUCCAGCACAGUGAAAUGGACAGAAGGGCAGAGCAA [G5A C6A U7A G8U C9A], the “exon inclusion enrichment index” value was found to be 0.0639. For AGUUAGCGAUGGGAGCUCCAGCACAGUGAAAUGGACAGAAGGGCAGAGCAA [G5A C6G U7C C9A] the value was 0.117.

Consider AGUUAAAACCGGGAGCUCCAGCACAGUGAAAUGGACAGAAGGGCAGAGCAA [G5A C6A U7A G8A U10C], for which the “exon inclusion enrichment index” value is 0.831. AGUUAGCACCGGGAGCUCCAGCACAGUGAAAUGGACAGAAGGGCAGAGCAA [G5A C6G U7C G8A U10C]: the “exon inclusion enrichment index” value turned out to be 0.446. For AGUUAGCACAGGGAGCUCCAGCACAGUGAAAUGGACAGAAGGGCAGAGCAA [G5A C6G U7C G8A U10A] the value was 0.00406; for AGUUAGUGCUGGGAGCUCCAGCACAGUGAAAUGGACAGAAGGGCAGAGCAA [G5A C6G], 0.00371; for AGUUAAUGCUGGGAGCUCCAGCACAGUGAAAUGGACAGAAGGGCAGAGCAA [G5A C6A], 0.0111. Regarding AGUUAGCGCCGGGAGCUCCAGCACAGUGAAAUGGACAGAAGGGCAGAGCAA [G5A C6G U7C U10C], the “exon inclusion enrichment index” value is 0.952. For AGUGUACGACGGGAGCUCCAGCACAGUGAAAUGGACAGAAGGGCAGAGCAA [U4G G5U C6A U7C C9A U10C] the value was 2.56. Turning to AGUUAACGAUGGGAGCUCCAGCACAGUGAAAUGGACAGAAGGGCAGAGCAA [G5A C6A U7C C9A], the “exon inclusion enrichment index” value was determined as 0.838. For AGUUACUGCUGGGAGCUCCAGCACAGUGAAAUGGACAGAAGGGCAGAGCAA [G5A] the value was 0.039. As to AGUUAAGGAUGGGAGCUCCAGCACAGUGAAAUGGACAGAAGGGCAGAGCAA [G5A C6A U7G C9A], the “exon inclusion enrichment index” value was found to be 0.107.

(Values after the RNAGym collection of RNA variant scans (doi:10.1101/gr.219683.116).)
